From patent US20150344570A1 (published 2015)

T1: FcγRIIa H (FcγRIIa, allotype with His at position 131), extracellular domain with C-terminal His tag (human, UniProt P12318 34-217)
T1 construct: extracellular domain; also called FcgRIIa H; 2aH; not shown: His tag at the C terminus
T1 sequence (looked up): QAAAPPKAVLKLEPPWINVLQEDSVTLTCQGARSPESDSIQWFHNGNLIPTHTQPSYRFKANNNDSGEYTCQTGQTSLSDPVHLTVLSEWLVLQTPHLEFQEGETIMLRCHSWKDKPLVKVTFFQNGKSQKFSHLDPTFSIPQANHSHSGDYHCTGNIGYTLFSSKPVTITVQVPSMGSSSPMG

T2: FcγRIIb, extracellular domain with C-terminal His tag (human, UniProt P31994 43-217)
T2 construct: extracellular domain; also called FcgRIIb; 2b; not shown: His tag at the C terminus
T2 sequence (looked up): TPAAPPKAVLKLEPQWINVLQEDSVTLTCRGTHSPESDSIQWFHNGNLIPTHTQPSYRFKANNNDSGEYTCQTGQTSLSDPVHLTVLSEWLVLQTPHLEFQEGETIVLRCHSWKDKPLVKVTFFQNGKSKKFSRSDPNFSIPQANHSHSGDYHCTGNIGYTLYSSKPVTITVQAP

T3: FcγRIIa H (human FcγRIIa, allotype H131, extracellular domain with C-terminal His tag) (human, UniProt P12318 34-217)
T3 construct: extracellular domain; Soluble extracellular domain expressed in FreeStyle293 cells; used as analyte in Biacore; also called FcgRIIa H; FcγRIIa type H; not shown: His tag attached to the C terminus
T3 sequence (looked up): T1 sequence (looked up)

B1: GpH7-A5/GpH7-B3 variant N325_05P/GpL16-k0 (antibody, human IgG1, kappa)
heavy 1: not shown
heavy 2: not shown
light: DIVMTQSPLSLPVTPGEPASISCQASESLVHSNRNTYLHWYLQKPGQSPQLLIYKVSNRFSGVPDRFSGSGSGTDFTLKISRVEAEDVGVYYCSQNTHVPPTFGQGTKVEIERTVAAPSVFIFPPSDEQLKSGTASVVCLLNNFYPREAKVQWKVDNALQSGNSQESVTEQDSKDSTYSLSSTLTLSKADYEKHKVYACEVTHQGLSSPVTKSFNRGEC
notes: Heterodimerized anti-glypican-3 IgG1; mutation in one H chain only; also called He Ab
B2: GpH7-A5/GpH7-B3 variant K326_19Q/GpL16-k0 (antibody, human IgG1, kappa)
heavy 1: not shown
heavy 2: not shown
light: B1 light
notes: as for B1
B3: GpH7-B3 variant T335_02A/GpL16-k0 (homodimerized antibody, Ho Ab) (antibody, human IgG1, kappa)
heavy: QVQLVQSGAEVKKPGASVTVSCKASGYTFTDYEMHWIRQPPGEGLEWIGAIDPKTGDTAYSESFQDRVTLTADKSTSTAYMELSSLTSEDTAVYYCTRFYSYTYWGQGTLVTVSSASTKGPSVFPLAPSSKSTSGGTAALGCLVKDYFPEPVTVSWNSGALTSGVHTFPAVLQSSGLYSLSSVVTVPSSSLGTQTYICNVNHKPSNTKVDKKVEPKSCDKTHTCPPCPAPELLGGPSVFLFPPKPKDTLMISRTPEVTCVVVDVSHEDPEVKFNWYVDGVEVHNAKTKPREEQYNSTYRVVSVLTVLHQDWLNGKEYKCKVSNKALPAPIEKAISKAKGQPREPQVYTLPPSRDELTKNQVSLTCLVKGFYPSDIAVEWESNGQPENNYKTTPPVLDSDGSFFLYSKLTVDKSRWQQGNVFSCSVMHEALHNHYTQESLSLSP
light: B1 light
notes: Anti-glypican-3 IgG1 (G1d with K439E); the alteration stands in both H chains; also called T335_02A Ho Ab; T335A in both H chains
B4: GpH7-A5/GpH7-B3 variant T335_02A/GpL16-k0 (heterodimerized antibody, He Ab) (antibody, human IgG1, kappa)
heavy 1: not shown
heavy 2: not shown
light: B1 light
notes: Anti-glypican-3 IgG1 heterodimer (D356K/H435R chain GpH7-A5 with K439E chain GpH7-B3 variant); the alteration stands in one H chain only; EU numbering; also called T335_02A He Ab; T335A in one H chain
B5: GpH7-A5/GpH7-B3 variant Y300_07I/GpL16-k0 (heterodimerized antibody, He Ab) (antibody, human IgG1, kappa)
heavy 1: not shown
heavy 2: not shown
light: B1 light
notes: Anti-glypican-3 IgG1 heterodimer; the alteration stands in one H chain only; EU numbering; also called Y300_07I He Ab; Y300I in one H chain
B6: GpH7-B3 variant T335_08L/GpL16-k0 (homodimerized antibody, Ho Ab) (antibody, human IgG1, kappa)
heavy: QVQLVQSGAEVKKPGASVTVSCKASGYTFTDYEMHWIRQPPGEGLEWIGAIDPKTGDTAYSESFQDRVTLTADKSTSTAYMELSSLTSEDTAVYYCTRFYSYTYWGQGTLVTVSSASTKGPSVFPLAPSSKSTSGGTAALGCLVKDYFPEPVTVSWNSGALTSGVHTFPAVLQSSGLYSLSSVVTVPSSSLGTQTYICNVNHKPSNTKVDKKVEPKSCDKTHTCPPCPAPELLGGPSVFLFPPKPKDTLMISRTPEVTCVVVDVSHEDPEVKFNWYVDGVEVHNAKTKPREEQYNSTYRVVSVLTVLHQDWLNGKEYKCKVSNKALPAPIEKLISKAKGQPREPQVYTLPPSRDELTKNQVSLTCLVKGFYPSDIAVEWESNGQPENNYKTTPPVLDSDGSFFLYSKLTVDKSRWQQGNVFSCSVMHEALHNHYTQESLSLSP
light: B1 light
notes: Anti-glypican-3 IgG1 (G1d with K439E); the alteration stands in both H chains; EU numbering; also called T335_08L Ho Ab; T335L in both H chains
B7: GpH7-B3 variant T335_09D/GpL16-k0 (homodimerized antibody, Ho Ab) (antibody, human IgG1, kappa)
heavy: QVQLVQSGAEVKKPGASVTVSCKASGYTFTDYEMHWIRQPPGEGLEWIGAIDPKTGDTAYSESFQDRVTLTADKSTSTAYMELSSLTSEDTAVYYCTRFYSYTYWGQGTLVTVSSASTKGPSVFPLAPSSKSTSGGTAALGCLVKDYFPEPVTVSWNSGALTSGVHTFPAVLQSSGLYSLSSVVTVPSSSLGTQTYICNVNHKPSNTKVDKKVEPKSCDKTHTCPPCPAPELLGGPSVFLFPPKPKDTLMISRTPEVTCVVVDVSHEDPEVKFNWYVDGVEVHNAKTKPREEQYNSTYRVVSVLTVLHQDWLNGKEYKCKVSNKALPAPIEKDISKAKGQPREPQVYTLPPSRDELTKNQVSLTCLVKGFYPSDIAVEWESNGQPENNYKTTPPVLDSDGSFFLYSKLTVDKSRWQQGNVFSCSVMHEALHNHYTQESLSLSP
light: B1 light
notes: Anti-glypican-3 IgG1 (G1d with K439E); the alteration stands in both H chains; EU numbering; also called T335_09D Ho Ab; T335D in both H chains
B8: GpH7-B3 variant T335_05P/GpL16-k0 (homodimerized antibody, Ho Ab) (antibody, human IgG1, kappa)
heavy: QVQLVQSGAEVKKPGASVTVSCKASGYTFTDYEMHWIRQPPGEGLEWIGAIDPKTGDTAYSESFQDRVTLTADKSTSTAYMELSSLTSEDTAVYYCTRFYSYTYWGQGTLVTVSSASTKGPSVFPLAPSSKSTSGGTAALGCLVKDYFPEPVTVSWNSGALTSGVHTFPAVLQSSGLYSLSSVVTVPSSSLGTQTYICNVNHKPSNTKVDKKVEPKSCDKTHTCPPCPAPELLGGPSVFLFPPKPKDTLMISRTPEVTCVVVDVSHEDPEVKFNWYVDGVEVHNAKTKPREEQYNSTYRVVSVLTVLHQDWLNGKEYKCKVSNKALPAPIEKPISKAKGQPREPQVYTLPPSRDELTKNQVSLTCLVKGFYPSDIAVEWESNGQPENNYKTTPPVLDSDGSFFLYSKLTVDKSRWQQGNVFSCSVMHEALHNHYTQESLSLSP
light: B1 light
notes: Anti-glypican-3 IgG1 (G1d with K439E); the alteration stands in both H chains; EU numbering; also called T335_05P Ho Ab; T335P in both H chains
B9: GpH7-A5/GpH7-B3 variant T335_06M/GpL16-k0 (heterodimerized antibody, He Ab) (antibody, human IgG1, kappa)
heavy 1: not shown
heavy 2: not shown
light: B1 light
notes: Anti-glypican-3 IgG1 heterodimer; the alteration stands in one H chain only; EU numbering; also called T335_06M He Ab; T335M in one H chain
B10: GpH7-B3 variant Y300_08L/GpL16-k0 (homodimerized antibody, Ho Ab) (antibody, human IgG1, kappa)
heavy: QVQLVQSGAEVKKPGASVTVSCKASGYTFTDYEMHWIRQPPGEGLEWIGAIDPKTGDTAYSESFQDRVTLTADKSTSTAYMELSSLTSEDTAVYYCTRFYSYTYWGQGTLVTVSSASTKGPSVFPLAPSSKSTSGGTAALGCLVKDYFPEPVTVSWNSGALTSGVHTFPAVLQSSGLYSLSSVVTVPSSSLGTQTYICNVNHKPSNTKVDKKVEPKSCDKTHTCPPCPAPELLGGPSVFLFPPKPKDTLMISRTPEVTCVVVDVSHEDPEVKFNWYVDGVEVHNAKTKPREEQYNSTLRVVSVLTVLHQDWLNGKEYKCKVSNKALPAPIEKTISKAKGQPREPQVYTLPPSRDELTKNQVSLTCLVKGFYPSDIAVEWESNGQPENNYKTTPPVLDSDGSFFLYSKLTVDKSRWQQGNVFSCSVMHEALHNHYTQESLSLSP
light: B1 light
notes: Anti-glypican-3 IgG1 (G1d with K439E); the alteration stands in both H chains; EU numbering; also called Y300_08L Ho Ab; Y300L in both H chains
B11: GpH7-B3 variant T335_06M/GpL16-k0 (homodimerized antibody, Ho Ab) (antibody, human IgG1, kappa)
heavy: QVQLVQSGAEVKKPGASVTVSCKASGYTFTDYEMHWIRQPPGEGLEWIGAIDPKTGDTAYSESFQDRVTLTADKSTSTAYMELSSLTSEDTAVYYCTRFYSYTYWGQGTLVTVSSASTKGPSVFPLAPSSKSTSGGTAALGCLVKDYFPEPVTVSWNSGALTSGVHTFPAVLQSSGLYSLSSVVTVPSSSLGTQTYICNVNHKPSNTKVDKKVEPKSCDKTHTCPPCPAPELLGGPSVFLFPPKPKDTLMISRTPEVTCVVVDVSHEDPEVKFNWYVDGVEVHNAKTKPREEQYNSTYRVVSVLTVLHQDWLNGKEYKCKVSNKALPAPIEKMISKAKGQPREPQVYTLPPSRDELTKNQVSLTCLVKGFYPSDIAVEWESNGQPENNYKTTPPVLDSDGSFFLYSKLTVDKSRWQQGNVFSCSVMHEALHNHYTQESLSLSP
light: B1 light
notes: Anti-glypican-3 IgG1 (G1d with K439E); the alteration stands in both H chains; EU numbering; also called T335_06M Ho Ab; T335M in both H chains
B12: GpH7-A5/GpH7-B3 variant T335_08L/GpL16-k0 (heterodimerized antibody, He Ab) (antibody, human IgG1, kappa)
heavy 1: not shown
heavy 2: not shown
light: B1 light
notes: Anti-glypican-3 IgG1 heterodimer; the alteration stands in one H chain only; EU numbering; also called T335_08L He Ab; T335L in one H chain
B13: GpH7-A5/GpH7-B3 variant T335_04F/GpL16-k0 (heterodimerized antibody, He Ab) (antibody, human IgG1, kappa)
heavy 1: not shown
heavy 2: not shown
light: B1 light
notes: Anti-glypican-3 IgG1 heterodimer; the alteration stands in one H chain only; EU numbering; also called T335_04F He Ab; T335F in one H chain
B14: GpH7-A5/GpH7-B3 variant Y300_08L/GpL16-k0 (heterodimerized antibody, He Ab) (antibody, human IgG1, kappa)
heavy 1: not shown
heavy 2: not shown
light: B1 light
notes: Anti-glypican-3 IgG1 heterodimer; the alteration stands in one H chain only; EU numbering; also called Y300_08L He Ab; Y300L in one H chain
B15: GpH7-A5/GpH7-B3 variant T335_05P/GpL16-k0 (heterodimerized antibody, He Ab) (antibody, human IgG1, kappa)
heavy 1: not shown
heavy 2: not shown
light: B1 light
notes: Anti-glypican-3 IgG1 heterodimer; the alteration stands in one H chain only; EU numbering; also called T335_05P He Ab; T335P in one H chain
B16: GpH7-B3 variant Y300_06M/GpL16-k0 (homodimerized antibody, Ho Ab) (antibody, human IgG1, kappa)
heavy: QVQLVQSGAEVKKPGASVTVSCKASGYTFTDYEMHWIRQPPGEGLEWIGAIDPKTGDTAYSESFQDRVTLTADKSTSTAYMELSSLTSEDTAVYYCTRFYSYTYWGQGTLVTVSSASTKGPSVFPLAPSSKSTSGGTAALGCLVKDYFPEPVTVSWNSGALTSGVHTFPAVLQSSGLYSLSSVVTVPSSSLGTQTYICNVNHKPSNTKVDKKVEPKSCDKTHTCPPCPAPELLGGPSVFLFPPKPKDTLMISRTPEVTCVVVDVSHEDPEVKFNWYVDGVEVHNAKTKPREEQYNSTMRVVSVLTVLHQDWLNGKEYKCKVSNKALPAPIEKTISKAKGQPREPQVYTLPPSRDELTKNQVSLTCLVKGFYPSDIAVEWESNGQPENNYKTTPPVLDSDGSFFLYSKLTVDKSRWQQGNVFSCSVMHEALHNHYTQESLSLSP
light: B1 light
notes: Anti-glypican-3 IgG1 (G1d with K439E); the alteration stands in both H chains; EU numbering; also called Y300_06M Ho Ab; Y300M in both H chains
B17: GpH7-B3 variant T335_04F/GpL16-k0 (homodimerized antibody, Ho Ab) (antibody, human IgG1, kappa)
heavy: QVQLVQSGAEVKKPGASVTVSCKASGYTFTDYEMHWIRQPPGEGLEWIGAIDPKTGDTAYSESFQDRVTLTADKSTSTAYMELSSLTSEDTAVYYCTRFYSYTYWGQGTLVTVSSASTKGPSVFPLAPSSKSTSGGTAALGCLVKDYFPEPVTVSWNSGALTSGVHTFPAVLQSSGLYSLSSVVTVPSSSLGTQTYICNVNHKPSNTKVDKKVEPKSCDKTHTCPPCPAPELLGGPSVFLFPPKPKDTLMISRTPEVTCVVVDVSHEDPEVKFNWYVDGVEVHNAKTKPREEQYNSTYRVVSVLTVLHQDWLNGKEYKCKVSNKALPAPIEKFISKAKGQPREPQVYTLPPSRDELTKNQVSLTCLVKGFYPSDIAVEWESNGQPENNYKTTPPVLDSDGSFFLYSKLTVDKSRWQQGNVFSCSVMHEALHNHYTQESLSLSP
light: B1 light
notes: Anti-glypican-3 IgG1 (G1d with K439E); the alteration stands in both H chains; EU numbering; also called T335_04F Ho Ab; T335F in both H chains
B18: GpH7-B3 variant Y300_07I/GpL16-k0 (homodimerized antibody, Ho Ab) (antibody, human IgG1, kappa)
heavy: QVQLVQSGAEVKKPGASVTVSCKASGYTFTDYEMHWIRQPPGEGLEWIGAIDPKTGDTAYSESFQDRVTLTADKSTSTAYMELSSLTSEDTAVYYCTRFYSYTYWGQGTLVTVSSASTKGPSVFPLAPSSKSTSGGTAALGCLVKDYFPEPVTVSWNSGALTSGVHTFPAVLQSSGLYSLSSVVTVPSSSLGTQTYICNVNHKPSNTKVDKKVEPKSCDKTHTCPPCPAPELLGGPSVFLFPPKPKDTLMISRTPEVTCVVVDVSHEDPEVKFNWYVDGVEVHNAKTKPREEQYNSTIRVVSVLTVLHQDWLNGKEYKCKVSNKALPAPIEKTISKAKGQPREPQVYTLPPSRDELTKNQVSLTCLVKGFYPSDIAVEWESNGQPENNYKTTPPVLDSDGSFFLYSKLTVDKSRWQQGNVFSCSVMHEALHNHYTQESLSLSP
light: B1 light
notes: Anti-glypican-3 IgG1 (G1d with K439E); the alteration stands in both H chains; EU numbering; also called Y300_07I Ho Ab; Y300I in both H chains
B19: GpH7-A5/GpH7-B3 variant T335_09D/GpL16-k0 (heterodimerized antibody, He Ab) (antibody, human IgG1, kappa)
heavy 1: not shown
heavy 2: not shown
light: B1 light
notes: Anti-glypican-3 IgG1 heterodimer; the alteration stands in one H chain only; EU numbering; also called T335_09D He Ab; T335D in one H chain
B20: GpH7-A5/GpH7-B3 variant Y300_06M/GpL16-k0 (heterodimerized antibody, He Ab) (antibody, human IgG1, kappa)
heavy 1: not shown
heavy 2: not shown
light: B1 light
notes: Anti-glypican-3 IgG1 heterodimer; the alteration stands in one H chain only; EU numbering; also called Y300_06M He Ab; Y300M in one H chain

target: T1, FcγRIIa H (FcγRIIa, allotype with His …); assay: SPR (Biacore), relative binding vs GpH7-A5/GpH7-B3/GpL16-k0

He/Con_2aH	Binder
20.7 % of HeCon Ab (=100)	B1
101 % of HeCon Ab (=100)	B2

target: T2, FcγRIIb, extracellular domain with …; assay: as above

He/Con_2b	Binder
26 % of HeCon Ab (=100)	B1
139 % of HeCon Ab (=100)	B2

target: T3, FcγRIIa H (human FcγRIIa, allotype …); assay: SPR (Biacore T100), antibody captured on antigen-peptide chip, FcγRIIa H as analyte; relative binding
Experimental: Analysis of interaction between objective antibody and the FcγR was carried out using Biacore T100 (GE Healthcare). HBS-EP+ (GE Healthcare) was used as the running buffer, and the measurement temperature was set to 25° C. Chips produced by immobilizing the antigen peptide by the amine coupling method to a Series S Sencor Chip CM5 (GE Healthcare), or alternatively, chips produced by allowing preliminarily biotinylated antigen peptides to interact with and immobilize onto a Series S Sensor Chip SA (certified) (GE Healthcare) were used. Antibodies of interest were captured onto an antigen peptide-immobilized chip, and allowed to interact to each FcγR diluted with running buffer. To regenerate and repeatedly use the chip, the antibodies captured on the chip were washed off by reacting 10 mM glycine-HCl, pH 1.5.

Ho/Con_2aH	He/Con_2aH	Binder
103 relative binding activity (control homodimerized antibody GpH7-B3/GpL16-k0 = 100)	–	B3
–	101 relative binding activity (control heterodimerized antibody GpH7-A5/GpH7-B3/GpL16-k0 = 100)	B4
–	108 relative binding activity (control heterodimerized antibody GpH7-A5/GpH7-B3/GpL16-k0 = 100)	B5
106 relative binding activity (control homodimerized antibody GpH7-B3/GpL16-k0 = 100)	–	B6
110 relative binding activity (control homodimerized antibody GpH7-B3/GpL16-k0 = 100)	–	B7
115 relative binding activity (control homodimerized antibody GpH7-B3/GpL16-k0 = 100)	–	B8
–	103 relative binding activity (control heterodimerized antibody GpH7-A5/GpH7-B3/GpL16-k0 = 100)	B9
115 relative binding activity (control homodimerized antibody GpH7-B3/GpL16-k0 = 100)	–	B10
106 relative binding activity (control homodimerized antibody GpH7-B3/GpL16-k0 = 100)	–	B11
–	106 relative binding activity (control heterodimerized antibody GpH7-A5/GpH7-B3/GpL16-k0 = 100)	B12
–	103 relative binding activity (control heterodimerized antibody GpH7-A5/GpH7-B3/GpL16-k0 = 100)	B13
–	108 relative binding activity (control heterodimerized antibody GpH7-A5/GpH7-B3/GpL16-k0 = 100)	B14
–	108 relative binding activity (control heterodimerized antibody GpH7-A5/GpH7-B3/GpL16-k0 = 100)	B15
106 relative binding activity (control homodimerized antibody GpH7-B3/GpL16-k0 = 100)	–	B16
104 relative binding activity (control homodimerized antibody GpH7-B3/GpL16-k0 = 100)	–	B17
122 relative binding activity (control homodimerized antibody GpH7-B3/GpL16-k0 = 100)	–	B18
–	107 relative binding activity (control heterodimerized antibody GpH7-A5/GpH7-B3/GpL16-k0 = 100)	B19
–	105 relative binding activity (control heterodimerized antibody GpH7-A5/GpH7-B3/GpL16-k0 = 100)	B20

target: T1, FcγRIIa H (FcγRIIa, allotype with His …); assay: SPR (Biacore); He/Con_2aH divided by He/Con_2b (FcγRIIb)

He_2aH/2b (IIaH/IIb)	Binder
0.8 ratio	B1
0.73 ratio	B2
